The assay concerns the target T1, human FSH receptor (human, UniProt P23945 18-695).
T1 construct: whole, on cells; Expressed in Y-1 (Y1) cells. cAMP is the read-out; also called hFSH receptor; recombinant native hFSH receptor
T1 sequence (looked up): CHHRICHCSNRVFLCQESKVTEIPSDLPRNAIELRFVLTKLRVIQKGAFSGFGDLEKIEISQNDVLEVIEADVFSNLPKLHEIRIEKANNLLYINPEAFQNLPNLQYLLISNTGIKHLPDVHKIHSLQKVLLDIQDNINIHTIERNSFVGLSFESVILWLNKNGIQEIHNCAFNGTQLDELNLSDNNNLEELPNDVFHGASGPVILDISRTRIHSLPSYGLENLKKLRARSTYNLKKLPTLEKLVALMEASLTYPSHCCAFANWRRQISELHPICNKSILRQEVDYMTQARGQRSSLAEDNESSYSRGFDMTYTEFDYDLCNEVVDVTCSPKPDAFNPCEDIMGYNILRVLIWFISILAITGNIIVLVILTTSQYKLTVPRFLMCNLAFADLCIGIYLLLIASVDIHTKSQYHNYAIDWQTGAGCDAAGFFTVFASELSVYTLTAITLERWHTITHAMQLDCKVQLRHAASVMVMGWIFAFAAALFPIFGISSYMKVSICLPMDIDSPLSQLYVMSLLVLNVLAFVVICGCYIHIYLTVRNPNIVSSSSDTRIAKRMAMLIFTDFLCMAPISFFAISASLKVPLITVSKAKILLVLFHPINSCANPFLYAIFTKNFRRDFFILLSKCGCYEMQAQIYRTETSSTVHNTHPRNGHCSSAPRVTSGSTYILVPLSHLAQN
Nature of the assay: conclusion drawn from the cAMP assay on cells expressing the hFSH receptor; no direct binding assay. On the procedure:
Bioactivity of the hFSH analogues was evaluated using Y-1 cells transfected with the FSH receptor. Y-1 cell cultures were mixed with the fusion protein and native pituitary hFSH (control) at varying concentrations and media was assayed for cAMP activity as described in Bouloux et al, 2001.
Figure 8: FIG. 8: In vitro bioassay of hormone activity. cAMP concentration (fmol/ml) was quantitated in Y1 cells expressing the FSH receptor after treatment with the indicated amount of either pituitary FSH (pFSH) or the FSH analogue, β-hFSH-CTP-α-hFSH (rFSH-CTP).
The bioactivity of the β-hFSH-CTP-α analogue was first assessed by an assay of hFSH receptor activity. In this assay, a recombinant native hFSH receptor is expressed in a suitable host cell and cAMP induction is measured following incubation with hormone (Lindau-Shepard et al, 2001).

B1: β-hFSH-CTP-α-hFSH fusion protein (ligand)
chain: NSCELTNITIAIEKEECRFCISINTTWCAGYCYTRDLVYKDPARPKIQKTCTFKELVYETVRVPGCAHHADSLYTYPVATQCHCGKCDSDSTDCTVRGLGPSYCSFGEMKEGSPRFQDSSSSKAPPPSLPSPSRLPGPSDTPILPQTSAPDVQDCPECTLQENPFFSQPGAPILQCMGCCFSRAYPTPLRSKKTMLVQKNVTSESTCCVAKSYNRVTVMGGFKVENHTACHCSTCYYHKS
modifications: O-linked glycosylation on serines of the CTP linker; N-linked glycosylation on the FSH subunits (sites not numbered on this entry)
notes: Secreted from CHO cells; also called β-hFSH-CTP-α analogue; rFSH-CTP
In the case of B1, the binding result is given as “binds”.

The record behind these values is patent US7442684 (TRUSTEES OF COLUMBIA UNIVERSITY IN THE CITY OF NEW YORK, dated 2008).
